From publication PMC6561242 come the findings set out here.

The target of the assay is α-synuclein 1–140 tagged with the C-terminal Venus fragment (UniProt P37840). Description: split reporter.

Chain of VAMP2 tagged with the N-terminal Venus fragment (natural protein) (P63027 2-116): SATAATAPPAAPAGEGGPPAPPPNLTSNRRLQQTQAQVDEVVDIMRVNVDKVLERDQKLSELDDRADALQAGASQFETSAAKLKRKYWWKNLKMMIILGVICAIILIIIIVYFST

“VAMP2 tagged with the N-terminal Venus fragment (natural protein)”: the Venus complementation fluorescence at boutons relative to α-syn 1–140 turned out to be 1 and the Venus complementation fluorescence relative to α-syn 1–140 worked out at 1.
